Source: article PMC2756588

Assays:
Experiment in all cases: SPOT array
Abp1, P15891 = molecular target: T1, Abp1, P15891; details: median of control spots 935
T1 sequence (P15891 535-592, looked up): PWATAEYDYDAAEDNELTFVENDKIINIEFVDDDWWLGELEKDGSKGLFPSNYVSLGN

Bbc1, P47068 = molecular target: T2, Bbc1, P47068; details: median of control spots 796
T2 sequence (P47068 1-78, looked up): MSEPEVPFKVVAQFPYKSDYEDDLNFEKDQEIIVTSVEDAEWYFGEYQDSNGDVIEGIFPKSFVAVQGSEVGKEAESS

Bem1-1, P29366 = details: median of control spots 4282
Chain of Bem1-1, P29366 (P29366 55-141): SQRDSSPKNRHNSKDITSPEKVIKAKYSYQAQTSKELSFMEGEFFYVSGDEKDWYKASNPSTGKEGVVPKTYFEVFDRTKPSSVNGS

Bem1-2, P29366 = details: median of control spots 4347
Chain of Bem1-2, P29366 (P29366 139-227): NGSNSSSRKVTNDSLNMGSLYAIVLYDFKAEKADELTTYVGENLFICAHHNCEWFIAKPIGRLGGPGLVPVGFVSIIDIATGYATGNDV

Boi1, P38041 = molecular target: T3, Boi1, P38041; details: median of control spots 1162
T3 sequence (P38041 1-86, looked up): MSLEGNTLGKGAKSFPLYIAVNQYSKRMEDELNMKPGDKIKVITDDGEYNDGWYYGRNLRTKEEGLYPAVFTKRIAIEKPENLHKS

Boi2, P39969 = molecular target: T4, Boi2, P39969; details: median of control spots 1161
T4 sequence (P39969 32-116, looked up): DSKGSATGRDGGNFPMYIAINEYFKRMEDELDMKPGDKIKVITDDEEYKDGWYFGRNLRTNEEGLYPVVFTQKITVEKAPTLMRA

Bud14, P27637 = molecular target: T5, Bud14, P27637; details: median of control spots 956
T5 sequence (P27637 247-328, looked up): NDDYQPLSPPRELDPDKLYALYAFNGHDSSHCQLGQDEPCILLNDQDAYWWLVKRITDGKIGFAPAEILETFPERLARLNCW

Bzz1-1, P38822 = molecular target: T6, Bzz1-1, P38822; details: median of control spots 4446
T6 sequence (P38822 478-572, looked up): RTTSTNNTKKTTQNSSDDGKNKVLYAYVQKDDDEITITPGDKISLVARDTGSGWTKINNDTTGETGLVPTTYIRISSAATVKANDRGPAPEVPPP

Bzz1-2, P38822 = molecular target: T7, Bzz1-2, P38822; details: median of control spots 4538
T7 sequence (P38822 568-633, looked up): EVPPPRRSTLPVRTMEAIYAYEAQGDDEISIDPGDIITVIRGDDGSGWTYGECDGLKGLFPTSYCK

Cdc25, P04821 = molecular target: T8, Cdc25, P04821; details: median of control spots 969
T8 sequence (P04821 50-136, looked up): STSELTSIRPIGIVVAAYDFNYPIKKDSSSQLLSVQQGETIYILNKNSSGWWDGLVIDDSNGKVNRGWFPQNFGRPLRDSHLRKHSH

Cyk3, Q07533 = molecular target: T9, Cyk3, Q07533; details: median of control spots 1451
T9 sequence (Q07533 1-83, looked up): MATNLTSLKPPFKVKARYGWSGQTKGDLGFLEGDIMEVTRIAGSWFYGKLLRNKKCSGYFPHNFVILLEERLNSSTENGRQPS

Fus1, P11710 = molecular target: T10, Fus1, P11710; details: median of control spots 1200
T10 sequence (P11710 432-512, looked up): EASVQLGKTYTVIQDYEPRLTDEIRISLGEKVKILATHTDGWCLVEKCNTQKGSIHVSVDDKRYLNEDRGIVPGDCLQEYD

GST = details: median of control spots 978
Hof1, Q05080 = molecular target: T11, Hof1, Q05080; details: median of control spots 4086
T11 sequence (Q05080 590-669, looked up): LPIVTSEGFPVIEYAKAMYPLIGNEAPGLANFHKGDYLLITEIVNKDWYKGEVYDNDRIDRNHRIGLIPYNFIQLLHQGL

Hse1, P38753 = molecular target: T12, Hse1, P38753; details: median of control spots 1727
T12 sequence (P38753 208-285, looked up): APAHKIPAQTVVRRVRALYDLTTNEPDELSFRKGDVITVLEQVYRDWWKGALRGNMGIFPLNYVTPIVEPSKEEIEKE

Lsb1, P53281 = molecular target: T13, Lsb1, P53281; details: median of control spots 388
T13 sequence (P53281 45-122, looked up): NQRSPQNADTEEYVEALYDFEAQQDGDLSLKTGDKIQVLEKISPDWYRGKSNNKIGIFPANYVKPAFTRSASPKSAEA

Lsb3, P43603 = molecular target: T14, Lsb3, P43603; details: median of control spots 406
T14 sequence (P43603 385-451, looked up): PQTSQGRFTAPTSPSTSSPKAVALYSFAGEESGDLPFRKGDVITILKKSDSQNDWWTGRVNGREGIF

Lsb4, P32793 = molecular target: T15, Lsb4, P32793; details: median of control spots 397
T15 sequence (P32793 402-468, looked up): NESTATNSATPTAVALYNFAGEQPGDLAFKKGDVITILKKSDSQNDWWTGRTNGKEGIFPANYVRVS

Myo3, P36006 = details: median of control spots 468
Myo5, Q04439 = molecular target: T16, Myo5, Q04439; details: median of control spots 471
T16 sequence (Q04439 1072-1160, looked up): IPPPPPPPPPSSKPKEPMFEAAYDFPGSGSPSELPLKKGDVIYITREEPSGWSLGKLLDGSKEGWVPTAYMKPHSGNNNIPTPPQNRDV

Nbp2, Q12163 = molecular target: T17, Nbp2, Q12163; details: median of control spots 357
T17 sequence (Q12163 103-180, looked up): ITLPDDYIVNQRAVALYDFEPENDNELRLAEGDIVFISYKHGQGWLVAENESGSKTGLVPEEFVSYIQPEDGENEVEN

Pex13, P80667 = molecular target: T18, Pex13, P80667; details: median of control spots 1341
T18 sequence (P80667 295-386, looked up): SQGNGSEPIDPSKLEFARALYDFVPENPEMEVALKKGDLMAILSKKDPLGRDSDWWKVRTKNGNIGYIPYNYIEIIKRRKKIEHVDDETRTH

Pin3, Q06449 = molecular target: T19, Pin3, Q06449; details: median of control spots 2171
T19 sequence (Q06449 53-122, looked up): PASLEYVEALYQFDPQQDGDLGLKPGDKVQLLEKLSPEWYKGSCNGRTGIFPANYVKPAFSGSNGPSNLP

Rvs167, P39743 = details: median of control spots 2707
Chain of Rvs167, P39743 (P39743 419-482): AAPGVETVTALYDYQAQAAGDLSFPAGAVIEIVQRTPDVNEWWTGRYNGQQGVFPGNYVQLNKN

Sho1, P40073 = details: median of control spots 1148
Chain of Sho1, P40073 (P40073 287-367): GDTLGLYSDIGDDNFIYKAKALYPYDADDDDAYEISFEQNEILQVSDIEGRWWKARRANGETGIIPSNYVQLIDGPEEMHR

Sla1-2, P32790 = molecular target: T20, Sla1-2, P32790; details: median of control spots 712
T20 sequence (P32790 60-140, looked up): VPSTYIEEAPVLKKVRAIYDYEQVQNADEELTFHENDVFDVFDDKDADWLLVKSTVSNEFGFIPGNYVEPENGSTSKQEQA

Sla1-3, P32790 = molecular target: T21, Sla1-3, P32790; details: median of control spots 5475
T21 sequence (P32790 344-424, looked up): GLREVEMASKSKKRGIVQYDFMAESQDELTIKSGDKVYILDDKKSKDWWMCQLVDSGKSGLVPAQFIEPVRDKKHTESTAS

Binder: GKKVRPLLVLLLSRA
- SPOT intensity (Abp1, P15891): 37
- SPOT intensity (Bbc1, P47068): 67
- SPOT intensity (Bem1-1, P29366): 0
- SPOT intensity (Bem1-2, P29366): 0
- SPOT intensity (Boi1, P38041): 14
- SPOT intensity (Boi2, P39969): 4
- SPOT intensity (Bud14, P27637): 9
- SPOT intensity (Bzz1-1, P38822): 0
- SPOT intensity (Bzz1-2, P38822): 0
- SPOT intensity (Cdc25, P04821): 132
- SPOT intensity (Cyk3, Q07533): 0
- SPOT intensity (Fus1, P11710): 4
- SPOT intensity (GST): 0
- SPOT intensity (Hof1, Q05080): 0
- SPOT intensity (Hse1, P38753): 0
- SPOT intensity (Lsb1, P53281): 0
- SPOT intensity (Lsb3, P43603): 6
- SPOT intensity (Lsb4, P32793): 2
- SPOT intensity (Myo3, P36006): 7
- SPOT intensity (Myo5, Q04439): 1
- SPOT intensity (Nbp2, Q12163): 10
- SPOT intensity (Pex13, P80667): 19
- SPOT intensity (Pin3, Q06449): 0
- SPOT intensity (Rvs167, P39743): 0
- SPOT intensity (Sho1, P40073): 51
- SPOT intensity (Sla1-2, P32790): 0
- SPOT intensity (Sla1-3, P32790): 0

Binder: SKSRLLIELPEGFFT
- SPOT intensity (Abp1, P15891): 0
- SPOT intensity (Bbc1, P47068): 0
- SPOT intensity (Bem1-1, P29366): 0
- SPOT intensity (Bem1-2, P29366): 0
- SPOT intensity (Boi1, P38041): 1
- SPOT intensity (Boi2, P39969): 1
- SPOT intensity (Bud14, P27637): 1
- SPOT intensity (Bzz1-1, P38822): 1
- SPOT intensity (Bzz1-2, P38822): 0
- SPOT intensity (Cdc25, P04821): 66
- SPOT intensity (Cyk3, Q07533): 0
- SPOT intensity (Fus1, P11710): 0
- SPOT intensity (GST): 0
- SPOT intensity (Hof1, Q05080): 0
- SPOT intensity (Hse1, P38753): 0
- SPOT intensity (Lsb1, P53281): 0
- SPOT intensity (Lsb3, P43603): 0
- SPOT intensity (Lsb4, P32793): 0
- SPOT intensity (Myo3, P36006): 0
- SPOT intensity (Myo5, Q04439): 0
- SPOT intensity (Nbp2, Q12163): 0
- SPOT intensity (Pex13, P80667): 14
- SPOT intensity (Pin3, Q06449): 4
- SPOT intensity (Rvs167, P39743): 0
- SPOT intensity (Sho1, P40073): 10
- SPOT intensity (Sla1-2, P32790): 0
- SPOT intensity (Sla1-3, P32790): 0

Binder: SNRRPVPRRPSQPLN
- SPOT intensity (Abp1, P15891): 139
- SPOT intensity (Bbc1, P47068): 248
- SPOT intensity (Bem1-1, P29366): 1
- SPOT intensity (Bem1-2, P29366): 29
- SPOT intensity (Boi1, P38041): 2
- SPOT intensity (Boi2, P39969): 1
- SPOT intensity (Bud14, P27637): 16
- SPOT intensity (Bzz1-1, P38822): 0
- SPOT intensity (Bzz1-2, P38822): 60
- SPOT intensity (Cdc25, P04821): 35
- SPOT intensity (Cyk3, Q07533): 0
- SPOT intensity (Fus1, P11710): 0
- SPOT intensity (GST): 0
- SPOT intensity (Hof1, Q05080): 18
- SPOT intensity (Hse1, P38753): 9
- SPOT intensity (Lsb1, P53281): 576
- SPOT intensity (Lsb3, P43603): 183
- SPOT intensity (Lsb4, P32793): 333
- SPOT intensity (Myo3, P36006): 3
- SPOT intensity (Myo5, Q04439): 0
- SPOT intensity (Nbp2, Q12163): 46
- SPOT intensity (Pex13, P80667): 129
- SPOT intensity (Pin3, Q06449): 12
- SPOT intensity (Rvs167, P39743): 3400
- SPOT intensity (Sho1, P40073): 31
- SPOT intensity (Sla1-2, P32790): 0
- SPOT intensity (Sla1-3, P32790): 459

Binder: RFKRHRLEFPFNESE
- SPOT intensity (Abp1, P15891): 36
- SPOT intensity (Bbc1, P47068): 36
- SPOT intensity (Bem1-1, P29366): 1
- SPOT intensity (Bem1-2, P29366): 4
- SPOT intensity (Boi1, P38041): 0
- SPOT intensity (Boi2, P39969): 0
- SPOT intensity (Bud14, P27637): 4
- SPOT intensity (Bzz1-1, P38822): 0
- SPOT intensity (Bzz1-2, P38822): 7
- SPOT intensity (Cdc25, P04821): 142
- SPOT intensity (Cyk3, Q07533): 0
- SPOT intensity (Fus1, P11710): 34
- SPOT intensity (GST): 0
- SPOT intensity (Hof1, Q05080): 9
- SPOT intensity (Hse1, P38753): 32
- SPOT intensity (Lsb1, P53281): 53
- SPOT intensity (Lsb3, P43603): 0
- SPOT intensity (Lsb4, P32793): 0
- SPOT intensity (Myo3, P36006): 0
- SPOT intensity (Myo5, Q04439): 0
- SPOT intensity (Nbp2, Q12163): 14
- SPOT intensity (Pex13, P80667): 13
- SPOT intensity (Pin3, Q06449): 15
- SPOT intensity (Rvs167, P39743): 0
- SPOT intensity (Sho1, P40073): 41
- SPOT intensity (Sla1-2, P32790): 0
- SPOT intensity (Sla1-3, P32790): 97
